The values below come from IntAct's records for PubMed 24291789.

B1: Cohesin subunit psc3 (Schizosaccharomyces pombe (strain ATCC 38366 / 972)), O13816 (parent)
chain: MSESVTTGSDDDGGDRESSPVMLSQSFDPMSSSSNSSSEENSDDDYEKTISSKKRHPRPNSKGVNVKRSRRNAIVEEDPQEEIFNNLFAFLLDQKVDTMDIAVSWFADYAKDNQSALANLINFILKCCGCNRAINVFDVQDQDSASATLSQIQLSVERTSTRDYPLNSKNLKFRNFRKRLTGLLSNFVSQLSIRNYLYNSTVFEDIMSWVVAMSSSTMRPIRHTATVFCLNIMTFLCEKSKELLNEHAIATKQLEKEEKRSRVNRNRINELNNSLGEIVKQQDTLTTYLNDYFDSVFVHRYRDVEPKIRVDCLQELGVWINTVPSIFFSGSYLRYLGWMLSDINTTVRLTVVKVLRKFFETDSFIGGLRHFSSRFKERILEMSCVDADIGVRVASIRLCNAMRTCGFLENSEILKVLKLILDINPRVQREAVLFLCKVVDESVNEKIDLWGEEDYILKAFSQTSLTTFSVHWIKFSQMCKLLEEVRLSYQSSFDYDTLLRIFQKNGNFITPITQALLNACEIDSIYQSWEDISNFVLFDNYTSTLKDPIDSILSFCKLNDFQESILLQLLSASIQTVCNNNFITPKTVHNKQAAETTNDQNKDKDLLYLNLLPYINSITERNSASPTLLHDSLRLLFSMDLTEMTDPQLSRHFELLINNLKKFFLTNNDLQIIQGCTILFLRLDSIPALKEDLKLLVTDICDQTVTEFLKNFGSFNIQDAVITKDEFVIFEACLTRIEGCTSLKDFSDYPEFDIIYERLVSLLSRVPNSYEDTLKFSAINTLQSLLFWFFLRKDNPADEEKKKDDETKVFNCLINIMNNDSSKILQLQAARTFLETVIMKEGVKASHYNDDNRVSEEHNFLKPQFLDALLKILEGWLYTYAKVGQFPFKRLTQASSPHTQISLDKNPLNRRLLEHVCCDLTSKLLIVVSLSNTITPEFSQQFCELRGHYGPKLSAIVDEFLN

The variants in the experiment derive from B1. The settings on record: with mis4_schpo mis4, Q09725.
mis4_schpo mis4, Q09725, sequence (Q09725 whole entry): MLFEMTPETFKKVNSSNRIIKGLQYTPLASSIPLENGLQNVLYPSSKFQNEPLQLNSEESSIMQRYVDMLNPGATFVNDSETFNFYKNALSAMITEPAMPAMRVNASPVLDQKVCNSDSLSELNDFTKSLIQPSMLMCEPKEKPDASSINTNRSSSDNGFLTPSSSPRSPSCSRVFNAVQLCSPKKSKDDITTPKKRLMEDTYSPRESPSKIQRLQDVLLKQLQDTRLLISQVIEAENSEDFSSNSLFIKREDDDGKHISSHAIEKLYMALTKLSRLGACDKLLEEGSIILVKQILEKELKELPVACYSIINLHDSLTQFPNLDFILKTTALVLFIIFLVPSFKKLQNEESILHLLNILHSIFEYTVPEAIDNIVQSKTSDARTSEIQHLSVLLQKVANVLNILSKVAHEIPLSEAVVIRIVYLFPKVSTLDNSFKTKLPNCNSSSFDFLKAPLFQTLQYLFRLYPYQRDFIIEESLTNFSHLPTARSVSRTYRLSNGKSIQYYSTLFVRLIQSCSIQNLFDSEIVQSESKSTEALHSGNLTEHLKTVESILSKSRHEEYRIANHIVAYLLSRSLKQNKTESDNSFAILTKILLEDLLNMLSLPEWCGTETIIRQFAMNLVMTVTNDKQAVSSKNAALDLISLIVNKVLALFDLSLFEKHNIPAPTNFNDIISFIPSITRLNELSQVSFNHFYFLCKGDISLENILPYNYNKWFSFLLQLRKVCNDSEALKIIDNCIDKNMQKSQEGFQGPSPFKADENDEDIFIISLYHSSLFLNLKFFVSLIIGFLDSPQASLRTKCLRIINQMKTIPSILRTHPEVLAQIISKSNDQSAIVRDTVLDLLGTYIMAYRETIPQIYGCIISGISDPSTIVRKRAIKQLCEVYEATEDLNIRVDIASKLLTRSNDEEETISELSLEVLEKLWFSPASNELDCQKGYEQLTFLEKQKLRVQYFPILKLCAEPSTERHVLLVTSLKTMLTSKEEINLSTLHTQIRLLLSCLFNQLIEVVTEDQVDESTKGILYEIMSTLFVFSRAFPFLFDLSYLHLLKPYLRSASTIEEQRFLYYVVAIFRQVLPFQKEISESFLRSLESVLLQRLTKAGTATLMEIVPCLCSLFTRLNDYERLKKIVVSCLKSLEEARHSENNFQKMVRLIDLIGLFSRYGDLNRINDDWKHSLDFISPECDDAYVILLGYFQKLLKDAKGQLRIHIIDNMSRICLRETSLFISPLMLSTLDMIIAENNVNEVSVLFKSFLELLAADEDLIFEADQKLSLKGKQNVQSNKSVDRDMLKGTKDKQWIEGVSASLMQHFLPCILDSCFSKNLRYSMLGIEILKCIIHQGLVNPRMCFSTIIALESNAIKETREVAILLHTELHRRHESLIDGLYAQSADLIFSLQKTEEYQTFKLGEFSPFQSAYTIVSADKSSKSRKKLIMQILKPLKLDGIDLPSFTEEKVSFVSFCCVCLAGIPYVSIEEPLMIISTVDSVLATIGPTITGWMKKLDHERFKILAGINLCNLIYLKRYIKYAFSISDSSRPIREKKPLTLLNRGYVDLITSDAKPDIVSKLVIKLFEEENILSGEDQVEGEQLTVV
R300G: the “effect of a mutation on the interaction” value is on record as “decreasing interaction strength”.

In the case of P306L, the “effect of a mutation on the interaction” value is “decreasing interaction strength”.
